Substrate in series [1]: N[C@H](CCC[C@H](N)C(=O)O)C(=O)O
In words: purified protein. It is filed as biochemical, Ureibacillus thermosphaericus. To be noted: oxidative deamination, NADP as co-substrate, carbonate-KOH pH 10.5, 50 °C.

Substrate in series [2]: NC(=O)c1ccc[n+]([C@@H]2O[C@H](COP(=O)(O)OP(=O)(O)OC[C@H]3O[C@@H](n4cnc5c(N)ncnc54)[C@H](OP(=O)(O)O)[C@@H]3O)[C@@H](O)[C@H]2O)c1
Kind of series: purified protein. It is filed as biochemical, Ureibacillus thermosphaericus. To be noted: oxidative deamination, meso-DAP as co-substrate, carbonate-KOH pH 10.5, 50 °C, varied: cofactor.

B1: meso-DAPDH (meso-diaminopimelate dehydrogenase) (Ureibacillus thermosphaericus) (protein)
chain: SKIRIGIVGYGNLGRGVEAAIQQNPDMELVAVFTRRDPKTVAVKSNVKVLHVDDAQSYKDEIDVMILCGGSATDLPEQGPYFAQYFNTIDSFDTHARIPDYFDAVNAAAEQSGKVAIISVGWDPGLFSLNRLLGEVVLPVGNTYTFWGKGVSQGHSDAIRRIQGVKNAVQYTIPIDEAVNRVRSGENPELSTREKHARECFVVLEEGADPAKVEHEIKTMPNYFDEYDTTVHFISEEELKQNHSGMPHGGFVIRSGKSDEGHKQIIEFSLNLESNPMFTSSALVAYARAAYRLSQNGDKGAKTVFDIPFGLLSPKSPEDLRKELL
notes: native, purified from U. thermosphaericus A1 cells; gene encodes 326 residues; homodimer about 80 kDa, subunit about 40 kDa; N-terminus SKIRIGIVGY (initiator Met removed)
In the case of B1, the Km in “purified protein [1]” was found to be 1600 µM; in the series “purified protein [2]”, 130 µM.

Usually Km stands for the substrate concentration at which the rate is half of its maximum.
